# Substrate: O=[N+]([O-])c1ccccc1O[C@@H]1O[C@H](CO)[C@H](O)[C@H](O)[C@H]1O
# Experiment: purified protein
# Type: biochemical, Kosakonia oryzendophytica
# Details: pH 7.0, 100 mM HEPES, 50 °C, 5 min, ONPG 0.3-50 mM, fit called substrate inhibition curve (Figure S4)
protein,measurement,value
"Koor β-gal (Kosakonia oryzendophytica) (protein, C-terminal 6xHis tag, pET-28a(+) NcoI/XhoI, E. coli BL21(DE3), Ni-NTA; synthetic gene) MSASALRTLISRRDWENPVITHWHRLPAHAPMRSWRDEQAARDNAPSSAHRLLNGEWYFRFFPAPEAVPERWITEEYDDAVAMPVPSNWQMQGFDTPIYTNVTYPIPVNPPFVPQQNPTGCYSLTFEMTAQALAQGQTRIVFDGVNSAFYLWCNGQWIGYSQDSRLPAEFDLSDVLHVGQNRLAVMVLRWCDGSYLEDQDMWRMSGIFRDVSLQHKPATHIADFHHTTELNAEFTHGQVKVDLRLAGEYSACQVAVALWHGEEKIAQAQQAPGSAIVDERGAWAERLSVSLPVSDPLLWSAETPHLYRLTLTLLDGLGNVLEVEACNVGFRKVEISNGLLKLNGKPLLIRGVNRHEHHPENGQAIDEATMRRDIELMKQHNFNAVRCSHYPNHPLWYSLCDEYGLYVVDEANIETHGMTPMSRLSDDPQWLPAMSERVTRMVLRDRNHPSIIIWSLGNESGHGASHDALYRWLKTTDPTRPVQYEGGGANTAATDIICPMYARVDEDQPFPAVPKWSIKKWIGLPDETRPLILCEYAHAMGNSFGGFAKYWQAFRETPRLQGGFVWDWVDQALTKTDTNGQSFWAYGGDFGDTPNDRQFCMNGLVFPDRTPHPALYEAQRAQQFFQFRLLNTTPLVIEVESEYLFRTTDNEYLRWAVVRDGLVLAQGEITLAIAPQGKQQIALTIPELESAPGEVWLNVDVYQKAATPWSDAEHHCAWDQWRLPSPLFIAPRKTVSSRPMLVVSEEEYVIHHRNQRWQFCRRSGDLIQWWRDEQPTLLTPLRDSFARAPLDNDIGISEVTRIDPNAWVERWKAAGMYDLRAELLACEVEEHAADIVVTTTHCWSGAGKTGFVSHKRWRIDGEGVLHGEVDVQVATDIPPPARIGLVCQLSEVQASVSWLGLGPHENYPDRKLAARQGRWTLPLAALHTPYIFPGENGLRCETRELHYGAHHLNGDFHFSLGRYSDKQLRETTHHHLLREEAGCWLHLDAFHMGVGGDDSWSPSVSPEFILRSERVRYAFCWRQD",Km,6.0 ± 0.3 mM
same,kcat,732.7 ± 43.5 s⁻¹

# Source: article PMC12654650, “Characterization of a β-Galactosidase from Kosakonia oryzendophytica and Its Heterologous Expression in Bacillus subtilis for Galactooligosaccharides Production” (Molecules, 2025)
